Laboratory results: US20150044245A1, “PARTIAL MHC CONSTRUCTS AND METHODS OF USE” (Oregon Health & Science University, priority 2012, published 2015)

What was measured:
[1] = target: four-domain MHC class II from DR*1501-Tg mice (human transgene expressed in mouse); assay: direct saturation binding of FITC-labeled construct to MHC class II immuno-adsorbed on Protein L/L243 beads; one-site fit
[2] = target: low affinity binding site for RTL on DR*1501-Tg mouse splenocytes; assay: competition of unlabeled construct with labeled RTL1000 (280 nM) on DR*1501-Tg splenocytes; low affinity site
[3] = target: RTL binding sites on CD11c+ cells of DR*1501-Tg mouse blood; assay: flow cytometry; blood of naive DR*1501-Tg mice 15 minutes after injection of 500 µg FITC-labeled RTL; lymphocyte gate, live cells; No RTL (pre-injection) panel 0.00%
[4] = target: RTL binding sites on CD19+ cells of DR*1501-Tg mouse blood; assay: as above
[5] = target: low affinity binding site for RTL on MHC class II deficient mouse splenocytes; assay: competition of unlabeled construct with labeled RTL1000 on MHC class II deficient mouse splenocytes; low affinity site
[6] = target: CD74 (MHC class II invariant chain) of DR*1501-Tg mouse splenocytes and monocytes (mouse) (UniProt P04441)
[7] = target: RTL binding sites on CD11b+ monocytes of DR*1501-Tg mice; assay: flow cytometry; blood of naive DR*1501-Tg mice incubated in vitro with FITC-labeled RTL (legend: 500 µg), 90 minutes post-treatment; monocyte gate; No RTL (pre-treatment) panel 0.07%
[8] = target: RTL binding sites on CD11b+ monocytes of DR*1501-Tg mice; assay: flow cytometry; blood of naive DR*1501-Tg mice incubated in vitro with FITC-labeled RTL (legend: 500 µg), 90 minutes post-treatment; LYMPHOCYTE gate; No RTL (pre-treatment) panel 0.00%
[9] = target: high affinity binding site for RTL on DR*1501-Tg mouse splenocytes; assay: competition of unlabeled construct with labeled RTL1000 (280 nM) on DR*1501-Tg splenocytes; high affinity site
[10] = target: RTL binding sites on CD3+ cells of DR*1501-Tg mouse blood; assay: flow cytometry; blood of naive DR*1501-Tg mice incubated in vitro with FITC-labeled RTL (legend: 500 µg), 90 minutes post-treatment; monocyte gate; No RTL (pre-treatment) panel 0.00%
[11] = target: RTL binding sites on CD19+ cells of DR*1501-Tg mouse blood; assay: as above
[12] = target: RTL binding sites on CD11c+ cells of DR*1501-Tg mouse blood; assay: flow cytometry; blood of naive DR*1501-Tg mice 15 minutes after injection of 500 µg FITC-labeled RTL; monocyte gate, live cells; No RTL (pre-injection) panel 0.12%
[13] = target: RTL binding sites on CD3+ cells of DR*1501-Tg mouse blood; assay: as above
[14] = target: RTL binding sites on CD19+ cells of DR*1501-Tg mouse blood; assay: as above
[15] = target: RTL binding sites on CD11c+ cells of DR*1501-Tg mouse blood; assay: flow cytometry; blood of naive DR*1501-Tg mice incubated in vitro with FITC-labeled RTL (legend: 500 µg), 90 minutes post-treatment; monocyte gate; No RTL (pre-treatment) panel 0.09%
[16] = target: RTL binding sites on CD11c+ cells of DR*1501-Tg mouse blood; assay: flow cytometry; blood of naive DR*1501-Tg mice incubated in vitro with FITC-labeled RTL (legend: 500 µg), 90 minutes post-treatment; lymphocyte gate; No RTL (pre-treatment) panel 0.00%
[17] = target: RTL binding sites on CD3+ cells of DR*1501-Tg mouse blood; assay: as above
[18] = target: RTL binding sites on CD19+ cells of DR*1501-Tg mouse blood; assay: as above
[19] = target: RTL binding sites on CD11b+ monocytes of DR*1501-Tg mice; assay: flow cytometry; blood of naive DR*1501-Tg mice 15 minutes after injection of 500 µg FITC-labeled RTL; LYMPHOCYTE gate, live cells; No RTL (pre-injection) panel 0.00%
[20] = target: Histone complex (Sigma); assay: SPR (Biacore 3000), histone complex amine coupled to CM5 chip, RTL1000 injected; 1:1 Langmuir model with drifting baseline
[21] = target: RTL binding sites on CD11b+ monocytes of DR*1501-Tg mice; assay: flow cytometry; naive CD11b+ monocytes incubated with 1 µg RTL1000 FITC (1 hour at 37 °C by the text); upper row of panels
[22] = target: RTL binding sites on CD11b+ monocytes of DR*1501-Tg mice; assay: flow cytometry; naive CD11b+ monocytes incubated with 5 µg RTL1000 FITC (1 hour at 37 °C by the text); upper row of panels
[23] = target: RTL binding sites on CD11b+ monocytes of DR*1501-Tg mice; assay: flow cytometry; blood of naive DR*1501-Tg mice 15 minutes after injection of 500 µg FITC-labeled RTL; monocyte gate, live cells; No RTL (pre-injection) panel 0.14%
[24] = target: RTL binding sites on CD3+ cells of DR*1501-Tg mouse blood; assay: flow cytometry; blood of naive DR*1501-Tg mice 15 minutes after injection of 500 µg FITC-labeled RTL; lymphocyte gate, live cells; No RTL (pre-injection) panel 0.05%
[25] = target: low affinity binding site for RTL on DR*1501-Tg mouse splenocytes; assay: saturation binding to 2 million spleen cells on ice; urea lysis, SDS-PAGE, fluorescence densitometry; two-site fit
[26] = target: high affinity binding site for RTL on DR*1501-Tg mouse splenocytes; assay: as above
[27] = target: low affinity binding site for RTL on MHC class II deficient mouse splenocytes; assay: competition on whole cells of MHC class II knockout mice: labeled RTL1000 against increasing unlabeled RTL1000; SDS-PAGE fluorescence densitometry
[28] = target: low affinity binding site for RTL on MHC class II deficient mouse splenocytes; assay: competition on whole cells of MHC class II knockout mice: labeled RTL1000 against increasing unlabeled RTL340; SDS-PAGE fluorescence densitometry
[29] = test system: mMOG-35-55-induced EAE in DR*1501-Tg mice
[30] = target: T1, CD74 (MHC class II invariant chain) of DR*1501-Tg mouse splenocytes and monocytes (mouse, UniProt P04441-2 1-215, limits assumed, surface biotinylated in the immunoprecipitation experiments); assay: competition of unlabeled DR-α1 with FITC-labeled RTL1000 (320 nM) for immunoprecipitated CD74; gel densitometry; one-site competition fit
T1 construct: Native protein from mouse cells; also called p31
T1 sequence (looked up): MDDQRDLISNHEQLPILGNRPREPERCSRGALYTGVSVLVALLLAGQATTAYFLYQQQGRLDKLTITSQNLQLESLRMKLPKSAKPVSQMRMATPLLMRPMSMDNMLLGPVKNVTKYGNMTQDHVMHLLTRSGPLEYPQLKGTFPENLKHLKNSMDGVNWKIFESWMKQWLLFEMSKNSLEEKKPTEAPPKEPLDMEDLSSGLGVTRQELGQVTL

[31] = target: T1, CD74 (MHC class II invariant chain) of …; assay: direct saturation binding of FITC-labeled construct to CD74 immuno-adsorbed on Protein L/ln-1 beads; SDS-PAGE densitometry; one-site fit
[32] = free peptide 10 μg i.v. daily for 5 days from onset

RTL1000 (pDR2/hMOG-35-55) (peptide-MHC)
Kd [1]: 1.14 nM
EC50 [2]: 11 nM
% of cells in the upper right quadrant (CD11c APC+, RTL FITC+) [3]: 4.63%
% of cells in the upper right quadrant (CD19 APC+, RTL FITC+) [4]: 0.82%
EC50 [5]: 71.1 nM
CD74 expression on naive CD11b+ monocytes after 1 µg RTL1000: % of cells in the upper right quadrant (CD11b APC+, CD74 PE+) [6]: 42%
CD74 expression on naive CD11b+ monocytes after 5 µg RTL1000: % of cells in the upper right quadrant (CD11b APC+, CD74 PE+) [6]: 9.84%
CD74 expression on naive CD11b+ monocytes after 10 µg RTL1000: % of cells in the upper right quadrant (CD11b APC+, CD74 PE+) [6]: 7.32%
% of cells in the upper right quadrant (CD11b PE+, RTL FITC+) [7]: 38.6%
% of cells in the upper right quadrant (CD11b PE+, RTL FITC+) [8]: 3.96%
EC50 [9]: 4000 nM
% of cells in the upper right quadrant (CD3 PE+, RTL FITC+) [10]: 4.01%
% of cells in the upper right quadrant (CD19 APC+, RTL FITC+) [11]: 5.82%
% of cells in the upper right quadrant (CD11c APC+, RTL FITC+) [12]: 9.26%
% of cells in the upper right quadrant (CD3 PE+, RTL FITC+) [13]: 0.36%
% of cells in the upper right quadrant (CD19 APC+, RTL FITC+) [14]: 3.93%
% of cells in the upper right quadrant (CD11c APC+, RTL FITC+) [15]: 6.77%
% of cells in the upper right quadrant (CD11c APC+, RTL FITC+) [16]: 4.4%
% of cells in the upper right quadrant (CD3 PE+, RTL FITC+) [17]: 1.49%
% of cells in the upper right quadrant (CD19 APC+, RTL FITC+) [18]: 1.26%
% of cells in the upper right quadrant (CD11b PE+, RTL FITC+) [19]: 9.23%
Kd [20]: 575 nM
% of cells in the upper right quadrant (CD11b APC+, RTL1000 FITC+) [21]: 55.8%
% of cells in the upper right quadrant (CD11b APC+, RTL1000 FITC+) [22]: 69.5%
% of cells in the upper right quadrant (CD11b PE+, RTL FITC+) [23]: 44.4%
% of cells in the upper right quadrant (CD3 PE+, RTL FITC+) [24]: 0.16%
Kd [25]: 131 nM
Kd [26]: 2.65 nM
IC50 (read off the curve) [27]: 40 nM

RTL340 (pDR2/MBP-85-99) (peptide-MHC)
EC50 [2]: 140 nM
EC50 [5]: 43.2 nM
IC50 (read off the curve) [28]: 60 nM

mMOG-35-55 peptide: free mouse MOG-35-55 peptide, MEVGWYRSPFSRVVHLYRNGK (SEQ ID NO: 50) (Synthetic peptide - mouse MOG 35-55) [reference compound]
CDI [29, 32]: 31.5 ± 9.8
Incidence [29, 32]: 5/5
Mortality [29, 32]: 0
Onset [29, 32]: 11.2 ± 1.2
Peak [29, 32]: 3.0 ± 0.9
effect on EAE (in words) ([29]; mMOG-35-55-induced EAE): did not produce significant inhibition of EAE

B1: DR-α1 domain alone (no DR2-β1 domain or peptide) (other, UniProt P01903 26-109, looked up)
chain: IKEEHVIIQAEFYLNPDQSGEFMFDFDGDEIFHVDMAKKETVWRLEEFGRFASFEAQGALANIAVDKANLEIMTKRSNYTPITN
modifications: labeled with FITC in the direct binding assays
notes: domain: α1
EC50 [30]: 447 nM
Kd [31]: 2.95 nM
